Assay [1] has as its target S16L/R18S/N21K (LSK) crosslinked (disulfide-stabilised) HIV-1 CA hexamer (HIV-1). Put plainly: crystal structure; crosslinked CA hexamer 12 mg/ml mixed with 1-5 mM IP6; sitting-drop vapour diffusion, 17 °C, MORPHEUS I screen.
For assay [2], the target named is S16N/R18S/N21K (NSK) crosslinked (disulfide-stabilised) HIV-1 CA hexamer (HIV-1). The assay is described as above.

On to “S16L/R18S/N21K (LSK) crosslinked (disulfide-stabilised) HIV-1 CA hexamer (complex)”, for which the stoichiometry N (in general, a count of units in the complex or per binding partner) in assay [1] was 6. Take “S16N/R18S/N21K (NSK) crosslinked (disulfide-stabilised) HIV-1 CA hexamer (complex)”: in assay [2], the stoichiometry N is 6.
